# Source: PMC4318453
# B1: BKPyV agnoprotein, purified full-length (natural protein)
# chain: MVLRQLSRQASVKVGKTWTGTKKRAQRIFIFILELLLEFCRGEDSVDGKNKSTTALPAVKDSVKDS
# Assays:
# [1] = molecular target: heat shock protein 40 (UniProt P25685); experiment: FRET or BRET; positive control of the FRET experiment, results not shown
# [2] = molecular target: Proliferating cell nuclear antigen, purified recombinant (UniProt P12004)
# UniProt P25685, sequence (P25685 whole entry): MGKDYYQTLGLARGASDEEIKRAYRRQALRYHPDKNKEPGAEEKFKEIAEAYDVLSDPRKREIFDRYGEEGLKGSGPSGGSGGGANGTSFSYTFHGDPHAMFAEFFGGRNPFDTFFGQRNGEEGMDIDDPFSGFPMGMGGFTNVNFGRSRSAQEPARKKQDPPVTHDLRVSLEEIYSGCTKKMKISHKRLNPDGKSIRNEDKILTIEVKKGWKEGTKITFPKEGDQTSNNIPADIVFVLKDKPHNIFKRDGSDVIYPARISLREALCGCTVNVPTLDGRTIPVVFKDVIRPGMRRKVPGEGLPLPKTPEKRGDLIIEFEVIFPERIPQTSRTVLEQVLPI
molecule,measurement,setting,value
mitogen-activated protein kinase MK5 (from UniProt Q8IW41 1-473) (enzyme),FRET efficiency,[1],15%
B1,"PCNA:pol δ-mediated in vitro DNA synthesis (polydA/oligodT, [3H]dTTP incorporation) with increasing amounts of agnoprotein",[2],50%
